B1: Pistol ribozyme (parent)
chain: GGGUCGUUGUUCCAUAAUCGCGUGGAUAUGGCACGCAAGUUUCUACCGGGCACCGUAAAUGUCCGACUGGAGCCGUUCGGGCGGCUAUAAACAGACCUCAGGCCCGAAGCGUGGCGGCACCUGCCGCCGGUGGUAAAAAAGAUCGGAAGAGCACACGUCU

The results in this text go back to the RNAGym collection of RNA variant scans (doi:10.1021/acssynbio.7b00057).

The variants in the data set derive from B1. As to the kind of experiment: aptazyme ON/OFF ratio, guanine; higher = stronger switching; co-transcriptional cleavage with and without guanine.
Consider GGGUCGAUGCCCGAUAAUCGCGUGGAUAUGGCACGCAAGUUUCUACCGGGCACCGUAAAUGUCCGACUGGAGCCGUUCGGGCGGCUAUAAACAGACCUCAGGCCCGAAGCGUGGCGGCACCUGCCGCCGGUGGUAAAAAAGAUCGGAAGAGCACACGUCU, for which the “aptazyme ON/OFF ratio” value is 1.07.
Next, GGGUCGAAGCCCUAUAAUCGCGUGGAUAUGGCACGCAAGUUUCUACCGGGCACCGUAAAUGUCCGACUGGAGCCGUUCGGGCGGCUAUAAACAGACCUCAGGCCCGAAGCGUGGCGGCACCUGCCGCCGGUGGUAAAAAAGAUCGGAAGAGCACACGUCU: 1.02; GGGUCGCCGGGAAAUAAUCGCGUGGAUAUGGCACGCAAGUUUCUACCGGGCACCGUAAAUGUCCGACUGGAGCCGUUCGGGCGGCUAUAAACAGACCUCAGGCCCGAAGCGUGGCGGCACCUGCCGCCGGUGGUAAAAAAGAUCGGAAGAGCACACGUCU: 1.14.
Next, GGGUCGUGAAGGAAUAAUCGCGUGGAUAUGGCACGCAAGUUUCUACCGGGCACCGUAAAUGUCCGACUGGAGCCGUUCGGGCGGCUAUAAACAGACCUCAGGCCCGAAGCGUGGCGGCACCUGCCGCCGGUGGUAAAAAAGAUCGGAAGAGCACACGUCU: 1.34.
Next, GGGUCGACUCACAAUAAUCGCGUGGAUAUGGCACGCAAGUUUCUACCGGGCACCGUAAAUGUCCGACUGGAGCCGUUCGGGCGGCUAUAAACAGACCUCAGGCCCGAAGCGUGGCGGCACCUGCCGCCGGUGGUAAAAAAGAUCGGAAGAGCACACGUCU: 1.1; GGGUCGUCUAGACAUAAUCGCGUGGAUAUGGCACGCAAGUUUCUACCGGGCACCGUAAAUGUCCGACUGGAGCCGUUCGGGCGGCUAUAAACAGACCUCAGGCCCGAAGCGUGGCGGCACCUGCCGCCGGUGGUAAAAAAGAUCGGAAGAGCACACGUCU: 1.07.
GGGUCGAGCCUCAAUAAUCGCGUGGAUAUGGCACGCAAGUUUCUACCGGGCACCGUAAAUGUCCGACUGGAGCCGUUCGGGCGGCUAUAAACAGACCUCAGGCCCGAAGCGUGGCGGCACCUGCCGCCGGUGGUAAAAAAGAUCGGAAGAGCACACGUCU: the “aptazyme ON/OFF ratio” value amounted to 1.09.
With GGGUCGGCACAGUAUAAUCGCGUGGAUAUGGCACGCAAGUUUCUACCGGGCACCGUAAAUGUCCGACUGGAGCCGUUCGGGCGGCUAUAAACAGACCUCAGGCCCGAAGCGUGGCGGCACCUGCCGCCGGUGGUAAAAAAGAUCGGAAGAGCACACGUCU, the “aptazyme ON/OFF ratio” value is 1.33.
The same measure for GGGUCGCAUCCCCAUAAUCGCGUGGAUAUGGCACGCAAGUUUCUACCGGGCACCGUAAAUGUCCGACUGGAGCCGUUCGGGCGGCUAUAAACAGACCUCAGGCCCGAAGCGUGGCGGCACCUGCCGCCGGUGGUAAAAAAGAUCGGAAGAGCACACGUCU: 1.01.
The same measure for GGGUCGUUGAAGCAUAAUCGCGUGGAUAUGGCACGCAAGUUUCUACCGGGCACCGUAAAUGUCCGACUGGAGCCGUUCGGGCGGCUAUAAACAGACCUCAGGCCCGAAGCGUGGCGGCACCUGCCGCCGGUGGUAAAAAAGAUCGGAAGAGCACACGUCU: 1.83.
Take GGGUCGAUAUGGAAUAAUCGCGUGGAUAUGGCACGCAAGUUUCUACCGGGCACCGUAAAUGUCCGACUGGAGCCGUUCGGGCGGCUAUAAACAGACCUCAGGCCCGAAGCGUGGCGGCACCUGCCGCCGGUGGUAAAAAAGAUCGGAAGAGCACACGUCU: the “aptazyme ON/OFF ratio” value worked out at 1.17.
Next, GGGUCGCUUCCGUAUAAUCGCGUGGAUAUGGCACGCAAGUUUCUACCGGGCACCGUAAAUGUCCGACUGGAGCCGUUCGGGCGGCUAUAAACAGACCUCAGGCCCGAAGCGUGGCGGCACCUGCCGCCGGUGGUAAAAAAGAUCGGAAGAGCACACGUCU: 1.02; GGGUCGCCCCCUGAUAAUCGCGUGGAUAUGGCACGCAAGUUUCUACCGGGCACCGUAAAUGUCCGACUGGAGCCGUUCGGGCGGCUAUAAACAGACCUCAGGCCCGAAGCGUGGCGGCACCUGCCGCCGGUGGUAAAAAAGAUCGGAAGAGCACACGUCU: 1.08; GGGUCGAUGUAGUAUAAUCGCGUGGAUAUGGCACGCAAGUUUCUACCGGGCACCGUAAAUGUCCGACUGGAGCCGUUCGGGCGGCUAUAAACAGACCUCAGGCCCGAAGCGUGGCGGCACCUGCCGCCGGUGGUAAAAAAGAUCGGAAGAGCACACGUCU: 1.24.
Next, GGGUCGAAGGGCUAUAAUCGCGUGGAUAUGGCACGCAAGUUUCUACCGGGCACCGUAAAUGUCCGACUGGAGCCGUUCGGGCGGCUAUAAACAGACCUCAGGCCCGAAGCGUGGCGGCACCUGCCGCCGGUGGUAAAAAAGAUCGGAAGAGCACACGUCU: 1.5; GGGUCGCGCUUGGAUAAUCGCGUGGAUAUGGCACGCAAGUUUCUACCGGGCACCGUAAAUGUCCGACUGGAGCCGUUCGGGCGGCUAUAAACAGACCUCAGGCCCGAAGCGUGGCGGCACCUGCCGCCGGUGGUAAAAAAGAUCGGAAGAGCACACGUCU: 1.12.
For GGGUCGAGGUAUGAUAAUCGCGUGGAUAUGGCACGCAAGUUUCUACCGGGCACCGUAAAUGUCCGACUGGAGCCGUUCGGGCGGCUAUAAACAGACCUCAGGCCCGAAGCGUGGCGGCACCUGCCGCCGGUGGUAAAAAAGAUCGGAAGAGCACACGUCU, the “aptazyme ON/OFF ratio” value was found to be 1.35.
The same measure for GGGUCGGCUCGCAAUAAUCGCGUGGAUAUGGCACGCAAGUUUCUACCGGGCACCGUAAAUGUCCGACUGGAGCCGUUCGGGCGGCUAUAAACAGACCUCAGGCCCGAAGCGUGGCGGCACCUGCCGCCGGUGGUAAAAAAGAUCGGAAGAGCACACGUCU: 1.44.
